From patent US20220162314A1 come the findings set out here.

For this test, the target named is Recombinant human CD8ab protein (extracellular domains of CD8a and CD8b with leucine zippers and tags) (human) (UniProt P01732). The experiment in a line: ELISA: antigen coated on the plate, antibody titrated, anti-IgG (Fc)-HRP and TMB, A450. (ELISA stands for enzyme-linked immunosorbent assay.)
Sequence of Recombinant human CD8ab protein (extracellular domains of CD8a and CD8b with leucine zippers and tags) (human) (P01732 22-182, chain 1 of 2): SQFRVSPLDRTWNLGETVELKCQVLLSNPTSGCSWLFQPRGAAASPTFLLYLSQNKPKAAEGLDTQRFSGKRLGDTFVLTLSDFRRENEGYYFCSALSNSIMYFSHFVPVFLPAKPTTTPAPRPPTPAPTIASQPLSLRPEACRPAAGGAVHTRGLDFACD
Sequence of Recombinant human CD8ab protein (extracellular domains of CD8a and CD8b with leucine zippers and tags) (human) (P10966 22-170, chain 2 of 2, further chain): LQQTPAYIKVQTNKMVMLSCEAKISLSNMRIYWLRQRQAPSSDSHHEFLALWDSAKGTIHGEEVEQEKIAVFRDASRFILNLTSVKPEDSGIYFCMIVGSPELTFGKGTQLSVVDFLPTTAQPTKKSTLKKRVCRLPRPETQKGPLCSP

Broadly, the EC50 (read off the curve) is the concentration that produces a half-maximal response. For “xhCD8a2 (clone SK1, Biolegend) (antibody)”, the EC50 (read off the curve) worked out at 0.1 nM.
